The record followed here is patent US20240301068A1 (BEIJING HANMI PHARMACEUTICAL, published 2024).

Usually EC50 stands for the concentration giving half of the maximal effect. For orientation: koff means the rate constant with which the complex falls apart. Usually IC50 stands for the concentration that gives 50% inhibition. What is called Kd is the constant that tells how readily two partners part at equilibrium. A word on the kon: it is the rate constant with which the complex forms.

For test [1], the target named is recombinant cynomolgus PD-L1 (Sino Biological Inc.) (cynomolgus, UniProt G7PSE7 19-238). The test is described as follows: ELISA, plate coated with 1 ug/mL recombinant cynomolgus PD-L1, anti-human IgG-HRP, OD450. The protocol:
A 96-well high-adsorption ELISA plate was coated with 1 μg/mL of the recombinant human PD-L1, cynomolgus PD-L1, rat PD-L1 and mouse PD-L1 (all purchased from Sino Biological Inc.), at 100 μL per well using carbonate buffer solution, pH=9.6 at 4° C. overnight. The plate was washed 5 times with PBST, and then blocked using PBST with 1% BSA, 300 μL/well, and incubated at 25° C. for 1 hour, and then washed 5 times with PBST. The chimeric anti-human PD-L1 antibody samples serially diluted in PBST with 1% BSA were added, 100 μL/well, incubated at 25° C. for 1 hour, and then washed 5 times with PBST. The horseradish peroxidase-labeled anti-human IgG antibody (Chemicon, catalog number AP309P) diluted 1:10000 in PBST with 1% BSA was then added, 100 μL per well, and incubated at 25° C. for 1 hour. The plate was washed 5 times with PBST. The colorimetric substrate TMB was added, 100 μL/well, and developed at room temperature for 10 minutes. 1M H₂SO₄ was added, 100 μL/well, to stop the development. The absorbance at 450 nm was read on a microplate reader.
On the technique in general: ELISA stands for enzyme-linked immunosorbent assay.

The target of test [2] is recombinant human CTLA4 (Sino Biological Inc.) (human, UniProt P16410 36-162). The test is described as follows: ELISA, plate coated with 1 ug/mL recombinant human CTLA4, anti-human IgG-HRP, OD450; antibody concentration not shown. As for the experimental part: (§1) The plate was washed 5 times with PBST, and then blocked using PBST with 1% BSA, 300 μL/well, and incubated at 25° C. for 1 hour, and then washed 5 times with PBST. […] The horseradish peroxidase-labeled anti-human IgG antibody (Chemicon, catalog number AP309P) diluted 1:10000 in PBST with 1% BSA was then added, 100 μL per well, and incubated at 25° C. for 1 hour. The plate was washed 5 times with PBST. The colorimetric substrate TMB was added, 100 μL/well, and developed at room temperature for 10 minutes. 1M H₂SO₄ was added, 100 μL/well, to stop the development. The absorbance at 450 nm was read on a microplate reader.
recombinant human CTLA4 (Sino Biological Inc.), sequence (P16410 36-162 limits assumed): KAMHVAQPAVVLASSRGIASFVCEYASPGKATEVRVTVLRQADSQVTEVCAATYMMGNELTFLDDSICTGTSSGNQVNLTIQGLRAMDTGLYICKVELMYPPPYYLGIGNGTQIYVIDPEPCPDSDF

The target of test [3] is T1, recombinant human CD86 (Sino Biological Inc.) (human, UniProt P42081 24-247, limits assumed).
T1 sequence (looked up): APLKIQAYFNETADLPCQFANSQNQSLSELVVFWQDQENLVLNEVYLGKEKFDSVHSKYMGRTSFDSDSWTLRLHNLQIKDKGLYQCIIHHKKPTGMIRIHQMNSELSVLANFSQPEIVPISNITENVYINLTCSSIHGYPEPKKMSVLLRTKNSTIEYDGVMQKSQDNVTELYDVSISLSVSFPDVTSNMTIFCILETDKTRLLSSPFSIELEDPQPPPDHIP
Nature of the test: ELISA, plate coated with 1 ug/mL recombinant human CD86 (printed B7-2), anti-human IgG-HRP, OD450; antibody concentration not shown. As for the experimental part:
as §1

In test [4] the target is T2, recombinant human B7-H2 (Sino Biological Inc.) (human, UniProt O75144 19-258, limits assumed).
T2 sequence (looked up): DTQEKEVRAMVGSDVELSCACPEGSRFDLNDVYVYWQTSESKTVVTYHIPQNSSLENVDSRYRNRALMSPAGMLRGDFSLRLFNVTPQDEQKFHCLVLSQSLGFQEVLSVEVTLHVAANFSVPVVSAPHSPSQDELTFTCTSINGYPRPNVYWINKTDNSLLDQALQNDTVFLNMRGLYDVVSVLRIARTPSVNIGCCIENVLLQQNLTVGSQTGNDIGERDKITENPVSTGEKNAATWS
Nature of the test: ELISA, plate coated with 1 ug/mL recombinant human B7-H2, anti-human IgG-HRP, OD450; antibody concentration not shown. The protocol:
as §1

Test [5] addresses T3, recombinant human PD-L1 (Sino Biological Inc.) (human, UniProt Q9NZQ7 19-239). The test is described as follows: affinity determination (dissociation constant), method not stated.
Test [6] concerns the target T4, recombinant human PD-L1-Fc protein (human, UniProt Q9NZQ7 19-238, limits assumed).
T4 construct: Prepared by Beijing Hanmi Pharmaceutical; The GenBank number is NP_001254635.1
The test is described as follows: competition ELISA: PD-L1-Fc coated, competitor biotin-labelled PD-1-Fc. The protocol: A 96-well high-adsorption ELISA plate was coated with 1 μg/mL of the recombinant human PD-L1-Fc at 100 μL per well using carbonate buffer solution, pH=9.6 at 4° C. overnight. The plate was washed 5 times with PBST, and then blocked using PBST with 1% BSA, 300 μL/well, and incubated at 25° C. for 1 hour, and then washed 5 times with PBST. […] The Streptavidin-HRP (BD Pharmingen, catalog number 554066) diluted 1:1000 in PBST with 1% BSA was then added, 100 μL per well, and incubated at 25° C. for 1 hour. The plate was washed 5 times with PBST. The colorimetric substrate TMB was added, 100 μL/well, and developed at room temperature for 10 minutes. 1M H₂SO₄ was added, 100 μL/well, to stop the development. The absorbance at 450 nm was read on a microplate reader.

Test [7] concerns the target T3, recombinant human PD-L1 (Sino …). Nature of the test: SPR, Biacore X100. The protocol: This instrument utilizes optical surface plasmon resonance technology to detect the association and dissociation between the molecules coated on the biochip and the molecules to be tested. Association constants and dissociation constants were analyzed and calculated by Biacore X100 evaluation software. […]
(SPR reads the build-up and loss of mass on a sensor chip optically.)

Test [8] has as its target T5, recombinant human ICOS (Sino Biological Inc.) (human, UniProt Q9Y6W8 21-141).
T5 sequence (looked up): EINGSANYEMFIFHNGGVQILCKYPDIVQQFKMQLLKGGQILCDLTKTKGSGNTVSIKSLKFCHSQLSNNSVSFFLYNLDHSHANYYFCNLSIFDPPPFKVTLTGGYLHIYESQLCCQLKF
The test is described as follows: ELISA, plate coated with 1 ug/mL recombinant human ICOS, anti-human IgG-HRP, OD450; antibody concentration not shown. As for the experimental part: as §1

T3 sequence (Q9NZQ7 19-239 limits assumed): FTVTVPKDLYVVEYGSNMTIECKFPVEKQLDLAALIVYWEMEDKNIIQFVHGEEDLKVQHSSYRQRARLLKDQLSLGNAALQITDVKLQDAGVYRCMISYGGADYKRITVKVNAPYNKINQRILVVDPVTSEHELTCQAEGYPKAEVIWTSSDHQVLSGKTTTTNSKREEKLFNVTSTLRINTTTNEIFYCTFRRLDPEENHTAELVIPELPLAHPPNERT
T4 sequence (Q9NZQ7 19-238 limits assumed): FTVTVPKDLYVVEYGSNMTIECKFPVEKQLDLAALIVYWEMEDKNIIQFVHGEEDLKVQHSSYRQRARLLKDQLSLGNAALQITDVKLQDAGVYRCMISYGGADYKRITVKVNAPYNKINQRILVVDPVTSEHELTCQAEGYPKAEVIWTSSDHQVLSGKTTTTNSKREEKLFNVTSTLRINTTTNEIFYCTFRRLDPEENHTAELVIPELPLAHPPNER
recombinant cynomolgus PD-L1 (Sino Biological Inc.), sequence (G7PSE7 entry or part of it limits assumed): as the sequence (Q9NZQ7 19-238 limits assumed) above, with A33T, A34S, S62N, R68Q, Q82R, F173L, T185A, T192I, H215L counted along it

B1: chimeric anti-human PD-L1 monoclonal antibody (antibody, human IgG1, kappa, V domains shown)
VH: EVQLQQSGAELVKPGASVKLSCTASGFNIEDTYIHWVMQRPEQGLEWIGRIDPANGNTKYDPKFQGKATITADTSSNTAYLQLSSLTSEDTAVYYCGRGLGAWFAYWGQGTLVTVSA
VL: DIVMTQSHKVMSTSVGDRVTITCKASQDVHTAVAWIHQKPGQSPKLLIYSASNRYTGVPDRFTGSGSGTDFTFTISSVQAEDLAVYYCQQHYITPLTFGAGTTLELKR
notes: expressed in ExpiCHO cells; also called Chimeric mAb; Chimeric antibody
For B1, the EC50 in test [1] was 0.074 nM. Moreover, the binding result in test [2], in test [3], in test [4] and in test [8] was “no binding” each time. Besides, the koff in test [5] stood at 0.000531 s⁻¹; in test [7], 0.000596 s⁻¹. Also, the IC50 in test [6] amounted to 0.596 nM. The Kd in test [7] was determined as 0.63 nM. In addition, in test [7], the kon was 946000 M⁻¹ s⁻¹.
